Measured values as given in PMC12318605.

Experiments:
His249 = His249 (UniProt position 249, PGVGTHVADCI); experiment: NMR; settings: 25 °C; 50 mM NaCl; 20 mM sodium phosphate (starting pH 6.8; pH adjusted with HCl or NaOH); 0.1 mM 13C-labelled hOGG1(K249H); no DNA is mentioned in the sample (apparently free enzyme)
Asp268 = Asp268 (UniProt position 268, QAVPVDVHMWH); experiment: kinetics; settings: 15 °C; 100 mM NaCl; 50 mM citric acid-Na2HPO4; Single-turnover conditions: 10 µM hOGG1(K249H) with 5.0 µM oxoG-containing DNA duplex F-oG23/C23 (substrate-bound enzyme)

Substance: 8-oxoguanine DNA glycosylase 1 (hOGG1), K249H mutant (Homo sapiens; K249H)
- pKa (His249): 5.54 ± 0.05
- pKa (Asp268): 4.5 ± 0.39
